For data set [1], the system named is T1, wild type Penicillium oxalicum glucoamylase.
T1 sequence: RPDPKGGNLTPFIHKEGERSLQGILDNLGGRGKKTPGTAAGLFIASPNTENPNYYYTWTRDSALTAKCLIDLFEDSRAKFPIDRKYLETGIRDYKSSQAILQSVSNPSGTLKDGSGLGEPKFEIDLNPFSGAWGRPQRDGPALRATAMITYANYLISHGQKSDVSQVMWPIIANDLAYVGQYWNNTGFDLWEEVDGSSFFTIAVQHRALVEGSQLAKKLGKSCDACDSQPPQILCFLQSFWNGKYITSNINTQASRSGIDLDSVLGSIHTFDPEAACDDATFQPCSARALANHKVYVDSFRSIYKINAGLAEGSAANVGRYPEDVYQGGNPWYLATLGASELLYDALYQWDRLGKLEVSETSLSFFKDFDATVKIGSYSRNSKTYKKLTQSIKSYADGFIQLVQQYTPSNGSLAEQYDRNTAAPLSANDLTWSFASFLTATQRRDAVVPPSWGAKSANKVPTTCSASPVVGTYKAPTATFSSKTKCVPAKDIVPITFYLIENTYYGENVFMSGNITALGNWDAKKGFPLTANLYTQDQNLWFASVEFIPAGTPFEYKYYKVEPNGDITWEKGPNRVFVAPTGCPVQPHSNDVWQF

Data set [2] deals with wild type Penicillium oxalicum glucoamylase (Penicillium oxalicum). Kind of data set: cell-based or functional assay.
Data set [3] has as its target Glucoamylase PE001: variant of the Penicillium oxalicum glucoamylase having a K79V substitution (Penicillium oxalicum). Kind of data set: cell-based or functional assay.
Data set [4] has as its target T2, wild type Penicillium oxalicum glucoamylase.
T2 chain: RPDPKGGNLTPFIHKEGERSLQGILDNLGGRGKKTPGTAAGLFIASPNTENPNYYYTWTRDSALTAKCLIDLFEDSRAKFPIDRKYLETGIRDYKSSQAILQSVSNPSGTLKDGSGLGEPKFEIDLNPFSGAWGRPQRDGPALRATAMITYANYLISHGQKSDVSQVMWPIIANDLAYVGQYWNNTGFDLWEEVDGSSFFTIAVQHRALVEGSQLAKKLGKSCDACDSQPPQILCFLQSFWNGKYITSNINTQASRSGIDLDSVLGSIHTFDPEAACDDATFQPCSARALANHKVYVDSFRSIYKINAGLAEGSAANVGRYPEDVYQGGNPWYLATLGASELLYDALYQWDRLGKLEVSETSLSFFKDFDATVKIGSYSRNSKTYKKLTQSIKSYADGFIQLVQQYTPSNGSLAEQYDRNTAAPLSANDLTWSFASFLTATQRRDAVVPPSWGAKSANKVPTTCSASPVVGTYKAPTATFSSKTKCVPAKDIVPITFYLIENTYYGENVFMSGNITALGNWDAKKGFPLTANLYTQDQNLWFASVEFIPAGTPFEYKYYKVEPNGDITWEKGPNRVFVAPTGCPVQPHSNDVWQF

The results in this text go back to patent US20200199559A1.

Like-named read-outs stand apart in the source and are kept apart here.

aspergillopepsin I: the “cleaved glucoamylase (ca. 60 kDa), SDS-PAGE after protease treatment overnight at 32° C.” value in data set [1] is on record as 10%.
In data set [2], aspergillopepsin I (enzyme) had an intact glucoamylase (ca. 70 kDa), SDS-PAGE after protease treatment overnight at 4° C. of 100% and an intact glucoamylase (ca. 70 kDa), SDS-PAGE after protease treatment overnight at 32° C. of 90%. In data set [3], the intact glucoamylase (ca. 70 kDa), SDS-PAGE after protease treatment overnight at 4° C. was 100% and the intact glucoamylase (ca. 70 kDa), SDS-PAGE after protease treatment overnight at 32° C. is 100%.

B1: aorsin (protein)
chain: GLNVTNCDQLITPECIRALYKIPSARAAPHPNNSLGIFEEGDYYAQEDLDLFFKTFAKDIPQGTHPIPAFIDGAEAPVPVTKAGGESDLDFELAYPIVHPQSITLYQTDDANWASNTTGFLNTFLDALDGSYCTYCAYGECGNDPSLDPVYPDDAGYDGQLMCGVFKPTNVISVSYGEQENDLPANYQQRQCMEFLKLGLQGVSVLFASGDNGVAGPPGDGNSVNGCLNNGTVFSPAFPNSCPYITNVGATKVYPGYTVSQPESAVYDPDGLYSYASGGGFSNIYPIPDYQAEAVATYFKDHNPPYPYYEGAENLGKNGGLYNRLGRGYPDVAANGDNIAVFNGGEFGSSGGTSASTPIFASIINRIIDERLAVGKGPVGFINPVLYKNPSVLNDITNGTNPGCGTDGFSTAPGWDPATGLGTPNYPKMLKLWLDLP
With B1, in data set [4], the “cleaved glucoamylase (ca. 60 kDa), SDS-PAGE after protease treatment overnight at 4° C.” value came to 60% and the “cleaved glucoamylase (ca. 60 kDa), SDS-PAGE after protease treatment overnight at 32° C.” value stood at 90%. Besides, in data set [2], the intact glucoamylase (ca. 70 kDa), SDS-PAGE after protease treatment overnight at 4° C. was determined as 40% and the intact glucoamylase (ca. 70 kDa), SDS-PAGE after protease treatment overnight at 32° C. is 10%. In addition, in data set [3], the intact glucoamylase (ca. 70 kDa), SDS-PAGE after protease treatment overnight at 4° C. turned out to be 100% and the intact glucoamylase (ca. 70 kDa), SDS-PAGE after protease treatment overnight at 32° C. amounted to 100%.
